Results taken from the supplement of paper PMC9170038.

System: MS2 coat protein
Test: apparent KD of MS2 coat protein; designed switch direction (-1 OFF switch, 1 ON switch): 1; higher = weaker reporter binding
Outline: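 Designed RNA switches sharing common flanks were transcribed on Illumina chips by stalled E. coli RNA polymerase. They were titrated with SNAP-549-labelled MS2 coat protein, from 0.7 or 1.5 nM doubling to 3 µM, in Tris-HCl pH 7.5 buffer with KCl, MgCl2, BSA, DTT, tRNA and Tween-20. Titrations ran without input, with 200 uM small-molecule ligand, or with an oligonucleotide input. The apparent KD of each design is the median over its clusters, after curve-fitting of normalised cluster fluorescence.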

[1] = input ligand: microRNA oligo, concentration not stated
[2] = Eterna round: R95, input ligand: FMN 200 uM
[3] = Eterna round: R95, input ligand: microRNA oligo, concentration not stated
[4] = Eterna round: R95, input ligand: none

Sequence	apparent KD of MS2 coat protein (input ligand: FMN 200 uM) [nM]	apparent KD of MS2 coat protein [1] [nM]	apparent KD of MS2 coat protein (input ligand: none) [nM]	apparent KD of MS2 coat protein [2] [nM]	apparent KD of MS2 coat protein [3] [nM]	apparent KD of MS2 coat protein [4] [nM]
GGAAGGAGGUCAGGAUAUGGAUGGAAGGUACAUGAGGAUCACCCAUGUUACGGAGGAAGGAAACGUUAGAAGGGAUAAGGAAGG [AK SSNG2-V2-2.1] (Eterna round: R96, puzzle: Same State NG 2)	34.7	24.9	31.8	–	–	–
UAAGAACAUGAGGAUCACCCAUGUGGAAAGAACACAGGAUAUCAUGGAAGAACGAAACCAUGAGAAGGGUGACACG [Raatis] (puzzle: Same State 1)	–	–	–	6270	225	24.3
AUUAAACAUGAGGAUCACCCAUGUCAACAAAGUCGAGGAUAUGGGCAAAUAAAAUAAGUACCAGAAGGCGAAUAAU [salish99_ss1_r3_066] (puzzle: Same State 1)	–	–	–	–	149	–
UUGCUCAUGUAAGGAUAUGCAGCCGUUUCGGCUGCAGAAGGUACUAUAAUACAUGAGGAUCACCCAUGUCUCUAUUAUUUAGUG [salish99_SSNG1_r04_924] (Eterna round: R96, puzzle: Same State NG 1)	78.6	43.8	59.8	–	–	–
ACAUGAGACACAGGAUAUCAUGUACCUACAUGUGACAUGAGGAUCACCCAUGUGGUAAGUAUGACUGAGAAGGGUGAGAUAUGU [Equivalance 89 - Jieux - Same State NG 2] (Eterna round: R96, puzzle: Same State NG 2)	369	394	962	–	–	–
CUACGAGCGCCACAGGAUAUACUGAGACUCACAUGAGGAUCACCCAUGUCCAAUUCUCCCAAAUAGUAGAAGGGUGACGCGCUCG [Maenve] (puzzle: Same State 2)	–	–	–	37.1	480	950
AAUUAAUUAAUUAAGUACAUGAGGAUCACCCAUGUAAGUGAUCAGGAUAUCAGCUCGAAUAGAGCUGAGAAGGGAUCCAUGUAC [SSNG3/15-A1] (Eterna round: R96, puzzle: Same State NG 3)	332	322	375	–	–	–
AGUCCAGCCUAAGCUGGACAAAAGCAUGUACAUGAGGAUCACCCAUGUUCAUGUACAAGCUUUUUGCUCGUCUUAAA [Mat - hsa-mir-208a - Mod of JL - 54] (puzzle: Sensor for hsa-mir-208a)	–	–	–	544	15.1	447
GGCAGGUGCAGGCUUGCUUGCACCUGGAAACAUGAGGAUCACCCAUGUUUGGGACAAGCUUUGCUCCUCGUCUUGUC [JL ViennaUCT Isusreraar mod 2] (Eterna round: R96, puzzle: Sensor for hsa-mir-208a)	38.4	39.2	42.8	–	–	–
GGUGCUGUCACAGGAUAUCAUGCGGAAAUCGCGUGAGAAGGGUGGACUCUGUCAUUCACGGAGGACAUGAGGAUCACCCAUGUG [SS NG10LRO20] (Eterna round: R96, puzzle: Same State NG 1)	68.5	5.67	20.2	–	–	–
UUAGAAUUGCAAGGAUAUCUAAUGUAGAUAGUAAGAGAAGGUGCUUGAUAGUUACAUGAGGAUCACCCAUGUAUUUGGGUUUAU [JR_SSNG1_Sub057] (Eterna round: R96, puzzle: Same State NG 1)	–	345	–	–	–	–
AGUCCAGCCUGAGCUGGACAAAAGCAUGUACAUGAGGAUCACCCAUGUCAUGUACAAGCUUUUUGCUCGUCUUAAAU [Mat - hsa-mir-208a - Mod of JL - D22] (puzzle: Sensor for hsa-mir-208a)	–	–	–	585	16.4	584
UGGUACAUGGGAGGAUAUCAUGUAGAAACAUGAGGAUCACCCAUGUAGGUGGCCGGUAACCGGAAUGAGAAGGCCCAUGUACCU [JL SSNG1 3.62] (Eterna round: R96, puzzle: Same State NG 2)	48.6	48.6	61.1	–	–	–
AGGCCACCGGAAGGAUAUGGCACCUUAUUGGUGCCAGAAGGUCCAACAUGAGGAUCACCCAUGUGGGUGGGUUCUAAUGAACAU [Fiskers NG1 - 2] (Eterna round: R96, puzzle: Same State NG 1)	76.5	37.6	47.9	–	–	–
UACCAACAAAUAAAACAAGCGUGCUCGUCACAUGAGGAUCACCCAUGUUUAAACGCUGUACCUACAUCCUCAGCGCC [Usatqulale] (puzzle: Sensor for hsa-mir-208a)	–	–	–	38.9	31.3	52
GAUCGUUUGAUAGGAUAUCGCUAUACAUGAGGAUCACCCAUGUUUACCACGCUGGUUUUUCAUACCGAGAAGGAUUCUGAUGAC [salish99_SSNG02_r04_007] (Eterna round: R96, puzzle: Same State NG 2)	21.5	15.5	26.6	–	–	–

Sequence	apparent KD of MS2 coat protein (input ligand: FMN 200 uM) [nM]	apparent KD of MS2 coat protein [1] [nM]	apparent KD of MS2 coat protein (input ligand: none) [nM]	apparent KD of MS2 coat protein [2] [nM]	apparent KD of MS2 coat protein [3] [nM]	apparent KD of MS2 coat protein [4] [nM]
GUAGCAUACCGAGGAUAUUCAUAAUACAUGAGGAUCACCCAUGUAAGGCCACAUUAGUGGCCUUGGGAGAAGGCGGAAUGCUAC [Xeonanis - 20 Mod43] (Eterna round: R96, puzzle: Same State NG 2)	13.7	35.7	44	–	–	–
GGCCAGAGUCAAGGAUAUGCUACCGUUUCGGUAGCAGAAGGUGAUCACAUGAGGAUCACCCAUGUUUACUGCGAGAGUAUGGCC [JL SSNG1 3.67] (Eterna round: R96, puzzle: Same State NG 1)	661	197	214	–	–	–
AUUUUUAAUGCAGGAUAUGAUUAACAUGAGGAUCACCCAUGUGGUGUUGUGAGUAAGGAGAGUGAUCAGAAGGGCAUUUUUUCA [SS-NG2-LRO01] (Eterna round: R96, puzzle: Same State NG 2)	838	495	533	–	–	–
AUUAAACAUGAGGAUCACCCAUGUCUACAAAGUCGAGGAUAUGGGCAAAUAAAAUAAGAACCAGAAGGCGAAUAAU [salish99_ss1_r3_072] (puzzle: Same State 1)	–	–	–	60.3	613	533
CAAGCUUGGGUCUUCCCGCUCGUCUACAAACAUGAGGAUCACCCAUGUAUACUCUUCGCAUCAAUUCUAUCUCUUGG [Onraenbi] (puzzle: Sensor for hsa-mir-208a)	–	–	–	210	23.3	272
GGUAUCUCCAGUGAGGAUAUGCGGCGUAGAACAUGAGGAUCACCCAUGUCCUUCGAAUGGGUUACGCAGAAGGCACUACGGUACC [Robot Arm] (puzzle: Same State 2)	–	–	–	–	30.1	–
GGGCCAGCUUGUGCUGGGCCUUCGCAUGCACAUGAGGAUCACCCAUGUCGUGUACAUGCUUGGUGCCCGUCUUUAAA [Photon Torp-13] (puzzle: Sensor for hsa-mir-208a)	–	–	–	102	13.9	103
UGGCUCAGACUAGGAUAUACGUGGUCACAUGAGGAUCACCCAUGUCUCGAGCUUCGGCUCGAGGCGUAGAAGGAGUCUGAGCCA [SSNG2/6-D2] (Eterna round: R96, puzzle: Same State NG 2)	145	199	184	–	–	–
UGGCUCAGAGCAGGAUAUAUGUAAUAACAUGAGGAUCACCCAUGUGUCGAGCUUCGGCUCGACACAUAGAAGGGCUCUGAGCCU [SSNG2/2-B3] (Eterna round: R96, puzzle: Same State NG 2)	12	28.8	40.3	–	–	–
AAGAAACAUGAGGAUCACCCAUGUAGAAAUAUGGGAGGAUAUACGAAGACGAAAGUCAAAGUAGAAGGCCUAAAAG [Mat - Same State 1 - Eli mod - D107] (Eterna round: R96, puzzle: Same State 1)	23.4	54	110	–	–	–
UUAUAACAUGAGGAUCACCCAUGUCAACAAAGUCGAGGAUAUGGGCAUAGAUUAUAAGAACCAGAAGGCGAAUAUU [Mat - Same State 1 - Mod of UCT - D40] (puzzle: Same State 1)	–	–	–	51.8	117	118
ACCCGCAGCCGUCAGGAUAUGUUCGCGUCAACAUGAGGAUCACCCAUGUGUGACAAGAAGUACACGCAGAAGGGAUCAAUGCGGG [Bienri] (Eterna round: R96, puzzle: Same State 2)	13.4	11.7	17.8	–	–	–
GCAUUACAUGAGGAUCACCCAUGUCUCUAAAGUCGAGGAUAUGGGCAGGUUAUAUCCGAACCAGAAGGCGAAUUGC [SS1 Teenbexe 10] (puzzle: Same State 1)	–	–	–	138	244	198
AGUCCAGCCUGAGCUGGACAAAAGCAUGUACAUGAGGAUCACCCAUGUUAUGUACAAGCUUUUUGCUCGUCUUAAAA [Zipper 46 - 15] (puzzle: Sensor for hsa-mir-208a)	–	–	–	165	13	153
AGUAGUGUAACAUGAGGAUCACCCAUGUAAGAAUAUGUAACCUAGGAUAUGGAGGUUAUGUUUGACCAGAAGGAGGAUUGUUUA [JR_SSNG3_Sub041] (Eterna round: R96, puzzle: Same State NG 3)	27	20.3	25.9	–	–	–
CCGAUGCUUAUAAAACAUGAGGAUCACCCAUGUGAGACACAUGAGGAUAUGCAGGUCAAAGACUUGCAGAAGGCAUAGCGUCGG [JL SSNG3 3.88] (Eterna round: R96, puzzle: Same State NG 3)	–	360	–	–	–	–
